Test results from patent publication US20210388087A1 (Chugai, published 2021).
Substitutions are numbered along the chain they refer to. In names and notes the source's numbering stands.

B1: CE115HA000 D101K one-arm antibody (antibody, human IgG1, kappa, L234A L235A, N297A, name in Kabat numbering)
heavy: QVQLVESGGGVVQPGRSLRLSCAASGFTFSNAWMHWVRQAPGKGLEWVAQIKAKSNNYATYYAESVKGRFTISRDDSKNSLYLQMNSLKTEDTAVYYCRYVHYGAYYGVKAWGQGTTVTVSSASTKGPSVFPLAPSSKSTSGGTAALGCLVKDYFPEPVTVSWNSGALTSGVHTFPAVLQSSGLYSLSSVVTVPSSSLGTQTYICNVNHKPSNTKVDKKVEPKSCDKTHTCPPCPAPEAAGGPSVFLFPPKPKDTLMISRTPEVTCVVVDVSHEDPEVKFNWYVDGVEVHNAKTKPREEQYASTYRVVSVLTVLHQDWLNGKEYKCKVSNKALPAPIEKTISKAKGQPREPQVYTLPPSRCELTKNQVSLSCAVKGFYPSDIAVEWESNGQPENNYKTTPPVLDSDGSFFLVSKLTVDKSRWQQGNVFSCSVMHEALHNHYTQKSLSLSPDYKDDDDK
chain: EPKSSDKTHTCPPCPAPELLGGPSVFLFPPKPKDTLMISRTPEVTCVVVDVSHEDPEVKFNWYVDGVEVHNAKTKPREEQYNSTYRVVSVLTVLHQDWLNGKEYKCKVSNKALPAPIEKTISKAKGQPREPQVCTLPPSRDELTKNQVSLWCLVKGFYPSDIAVEWESNGQPENNYKTTPPVLDSDGSFFLYSKLTVDKSRWQQGNVFSCSVMHEALHNRYTQKSLSLSP
light: DIVMTQSPLSLPVTPGEPASISCRSSQSLVHSNRNTYLHWYQQKPGQAPRLLIYKVSNRFSGVPDRFSGSGSGTDFTLKISRVEAEDVGVYYCGQGTQVPYTFGQGTKLEIKRTVAAPSVFIFPPSDEQLKSGTASVVCLLNNFYPREAKVQWKVDNALQSGNSQESVTEQDSKDSTYSLSSTLTLSKADYEKHKVYACEVTHQGLSSPVTKSFNRGEC
B2: CE115HA000 D101N one-arm antibody (antibody, human IgG1, kappa, L234A L235A, N297A, name in Kabat numbering)
heavy: B1 heavy with K110N
chain: B1 chain
light: B1 light
B3: CE115HA000 G98D one-arm antibody (antibody, human IgG1, kappa, L234A L235A, N297A, name in Kabat numbering)
heavy: B1 heavy with G104D, K110D
chain: B1 chain
light: B1 light
B4: CE115HA000 G100bD one-arm antibody (antibody, human IgG1, kappa, L234A L235A, N297A, name in Kabat numbering)
heavy: B1 heavy with G108D, K110D
chain: B1 chain
light: B1 light
B5: CE115HA000 D101V one-arm antibody (antibody, human IgG1, kappa, L234A L235A, N297A, name in Kabat numbering)
heavy: B1 heavy with K110V
chain: B1 chain
light: B1 light
B6: CE115HA000 G65D one-arm antibody (antibody, human IgG1, kappa, L234A L235A, N297A, name in Kabat numbering)
heavy: B1 heavy with G68D, K110D
chain: B1 chain
light: B1 light
B7: CE115HA000 D101Q one-arm antibody (antibody, human IgG1, kappa, L234A L235A, N297A, name in Kabat numbering)
heavy: B1 heavy with K110Q
chain: B1 chain
light: B1 light
B8: CE115HA000 D101T one-arm antibody (antibody, human IgG1, kappa, L234A L235A, N297A, name in Kabat numbering)
heavy: B1 heavy with K110T
chain: B1 chain
light: B1 light
B9: CE115HA000 G98R one-arm antibody (antibody, human IgG1, kappa, L234A L235A, N297A, name in Kabat numbering)
heavy: B1 heavy with G104R, K110D
chain: B1 chain
light: B1 light
B10: CE115HA000 D101L one-arm antibody (antibody, human IgG1, kappa, L234A L235A, N297A, name in Kabat numbering)
heavy: B1 heavy with K110L
chain: B1 chain
light: B1 light
B11: CE115HA000 G98Q one-arm antibody (antibody, human IgG1, kappa, L234A L235A, N297A, name in Kabat numbering)
heavy: B1 heavy with G104Q, K110D
chain: B1 chain
light: B1 light
B12: CE115HA000 G98P one-arm antibody (antibody, human IgG1, kappa, L234A L235A, N297A, name in Kabat numbering)
heavy: B1 heavy with G104P, K110D
chain: B1 chain
light: B1 light
B13: CE115HA000 G65E one-arm antibody (antibody, human IgG1, kappa, L234A L235A, N297A, name in Kabat numbering)
heavy: B1 heavy with G68E, K110D
chain: B1 chain
light: B1 light
B14: CE115HA000 G98A one-arm antibody (antibody, human IgG1, kappa, L234A L235A, N297A, name in Kabat numbering)
heavy: B1 heavy with G104A, K110D
chain: B1 chain
light: B1 light
B15: CE115HA000 F29V one-arm antibody (antibody, human IgG1, kappa, L234A L235A, N297A, name in Kabat numbering)
heavy: B1 heavy with F29V, K110D
chain: B1 chain
light: B1 light
B16: CE115HA000 D101Y one-arm antibody (antibody, human IgG1, kappa, L234A L235A, N297A, name in Kabat numbering)
heavy: B1 heavy with K110Y
chain: B1 chain
light: B1 light
B17: CE115HA000 G100bF one-arm antibody (antibody, human IgG1, kappa, L234A L235A, N297A, name in Kabat numbering)
heavy: B1 heavy with G108F, K110D
chain: B1 chain
light: B1 light
B18: CE115HA000 D101R one-arm antibody (antibody, human IgG1, kappa, L234A L235A, N297A, name in Kabat numbering)
heavy: B1 heavy with K110R
chain: B1 chain
light: B1 light
B19: CE115HA000 E61A one-arm antibody (antibody, human IgG1, kappa, L234A L235A, N297A, name in Kabat numbering)
heavy: B1 heavy with E64A, K110D
chain: B1 chain
light: B1 light
B20: CE115HA000 E61D one-arm antibody (antibody, human IgG1, kappa, L234A L235A, N297A, name in Kabat numbering)
heavy: B1 heavy with E64D, K110D
chain: B1 chain
light: B1 light
B21: CE115HA000 E61Q one-arm antibody (antibody, human IgG1, kappa, L234A L235A, N297A, name in Kabat numbering)
heavy: B1 heavy with E64Q, K110D
chain: B1 chain
light: B1 light
B22: CE115HA000 G98K one-arm antibody (antibody, human IgG1, kappa, L234A L235A, N297A, name in Kabat numbering)
heavy: B1 heavy with G104K, K110D
chain: B1 chain
light: B1 light
B23: CE115HA000 G98S one-arm antibody (antibody, human IgG1, kappa, L234A L235A, N297A, name in Kabat numbering)
heavy: B1 heavy with G104S, K110D
chain: B1 chain
light: B1 light
B24: CE115HA000 G100bE one-arm antibody (antibody, human IgG1, kappa, L234A L235A, N297A, name in Kabat numbering)
heavy: B1 heavy with G108E, K110D
chain: B1 chain
light: B1 light
B25: CE115HA000 G98Y one-arm antibody (antibody, human IgG1, kappa, L234A L235A, N297A, name in Kabat numbering)
heavy: B1 heavy with G104Y, K110D
chain: B1 chain
light: B1 light
B26: CE115HA000 D101P one-arm antibody (antibody, human IgG1, kappa, L234A L235A, N297A, name in Kabat numbering)
heavy: B1 heavy with K110P
chain: B1 chain
light: B1 light
B27: CE115HA000 D101M one-arm antibody (antibody, human IgG1, kappa, L234A L235A, N297A, name in Kabat numbering)
heavy: B1 heavy with K110M
chain: B1 chain
light: B1 light
B28: CE115HA000 D101S one-arm antibody (antibody, human IgG1, kappa, L234A L235A, N297A, name in Kabat numbering)
heavy: B1 heavy with K110S
chain: B1 chain
light: B1 light
B29: CE115HA000 E61P one-arm antibody (antibody, human IgG1, kappa, L234A L235A, N297A, name in Kabat numbering)
heavy: B1 heavy with E64P, K110D
chain: B1 chain
light: B1 light
B30: CE115HA000 G98T one-arm antibody (antibody, human IgG1, kappa, L234A L235A, N297A, name in Kabat numbering)
heavy: B1 heavy with G104T, K110D
chain: B1 chain
light: B1 light
B31: CE115HA000 G98H one-arm antibody (antibody, human IgG1, kappa, L234A L235A, N297A, name in Kabat numbering)
heavy: B1 heavy with G104H, K110D
chain: B1 chain
light: B1 light

Target: T1, CD3 epsilon homodimer protein (UniProt P07766 23-126)
T1 construct: immobilized on Sensor chip CM4 by amine coupling; also called CD3 (CD3 epsilon)
Assay: SPR (Biacore T200), CD3 epsilon homodimer on CM4 chip, one-arm antibody as analyte, 25 C;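 also: homodimer attached to the sensor surface via amine coupling, HBS-EP+ used as running buffer during binding runs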

T1 sequence (P07766 23-126): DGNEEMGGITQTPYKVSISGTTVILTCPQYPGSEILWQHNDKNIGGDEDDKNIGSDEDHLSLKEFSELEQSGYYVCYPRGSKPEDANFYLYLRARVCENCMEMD

First: B1
Second: B2
The “ratio of amounts bound (altered form / CE115HA000)” value of the first is lower: 0.63 for the first, 2.02 for the second.

Going from B3 to B4, the “ratio of amounts bound (altered form / CE115HA000)” value rises from 0.26 to 0.27.

Compared with B5, B6 is lower in “ratio of amounts bound (altered form / CE115HA000)” value: 1.33 for the first, 0.76 for the second.

First: B7
Second: B8
The “ratio of amounts bound (altered form / CE115HA000)” value of the first is higher: 2.35 for the first, 0.79 for the second.

Compared with B9, B10 is lower in “ratio of amounts bound (altered form / CE115HA000)” value: 2.96 for the first, 0.62 for the second.

First: B11
Second: B12
The “ratio of amounts bound (altered form / CE115HA000)” value of the first is higher: 1.22 for the first, 1.02 for the second.

First: B13
Second: B14
The “ratio of amounts bound (altered form / CE115HA000)” value of the first is lower: 0.78 for the first, 1.1 for the second.

Going from B15 to B16, the “ratio of amounts bound (altered form / CE115HA000)” value rises from 0.36 to 0.49.

Compared with B17, B18 is lower in “ratio of amounts bound (altered form / CE115HA000)” value: 0.3 for the first, 0.24 for the second.

First: B19
Second: B20
The “ratio of amounts bound (altered form / CE115HA000)” value of the first is higher: 1.09 for the first, 0.91 for the second.

Going from B21 to B22, the “ratio of amounts bound (altered form / CE115HA000)” value rises from 1.07 to 2.83.

First: B23
Second: B24
The “ratio of amounts bound (altered form / CE115HA000)” value of the first is higher: 1.01 for the first, 0.26 for the second.

First: B25
Second: B26
The “ratio of amounts bound (altered form / CE115HA000)” value of the first is higher: 2.22 for the first, 0.2 for the second.

First: B27
Second: B28
The “ratio of amounts bound (altered form / CE115HA000)” value of the first is higher: 1.2 for the first, 1.16 for the second.

Going from B29 to B30, the “ratio of amounts bound (altered form / CE115HA000)” value falls from 1.07 to 1.05.

B31 was tested, and the “ratio of amounts bound (altered form / CE115HA000)” value was 1.58.
